± gives the uncertainty stated by the source.
Experiment: protein stability index of a GFP-peptide fusion (yeast GPS) (PSI 1-4); higher = more stable; sorted into four equal gates, so the index is relative within each strain
Outline: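 Yeast carrying a pooled library were grown to mid-log phase in leucine-free medium. Each library plasmid expresses Cherry and has a tiled 17-residue yeast protein peptide fused downstream of GFP. Cells were sorted into four equal gates by GFP/Cherry ratio, and plasmids from each gate were PCR-amplified, Illumina-sequenced and assigned to strains by barcode. Summing, across gates, the read frequency times the gate number gave each peptide's protein stability index.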

| Sequence | protein stability index (doa10∆) | protein stability index (pdr5∆) | protein stability index (san1∆) | protein stability index (ubr1∆) |
| --- | --- | --- | --- | --- |
| AFDVDRAKSCGVDAMSV [RPL1A] | 2.79 ± 0.092 | 2.73 ± 0.094 | 2.76 ± 0.091 | 2.71 ± 0.055 |
| AQLTHSLRRIRDEMSKA [MED8] | 2.33 ± 0.12 | 2.35 ± 0.07 | 2.02 ± 0.11 | 1.99 ± 0.052 |
| IAAGTYGKVYKAKRQIN [SSN3] | 1.68 ± 0.061 | 2.03 ± 0.043 | 2.24 ± 0.068 | 2.29 ± 0.048 |
| IQAGKFDNKSTSEEQEA [SNF2] | 3.28 ± 0.068 | 3.36 ± 0.16 | 2.84 ± 0.17 | 2.94 ± 0.12 |
| FLKHNGEEDAVDLLLEI [RPN1] | 3.23 ± 0.082 | 3.16 ± 0.12 | 3.24 ± 0.072 | 3.3 ± 0.05 |
| TEFSKNDLEVGVATKDK [SCL1] | 2.95 ± 0.079 | 3.03 ± 0.068 | 2.63 ± 0.088 | 2.71 ± 0.075 |
| SNADTNQNSDMKKKLEL [SRB8] | 3.14 ± 0.13 | 3.21 ± 0.15 | 2.75 ± 0.11 | 3.31 ± 0.17 |
| QSYFSQLKFEGFALNSD [BRR2] | 1.35 ± 0.05 | 1.26 ± 0.045 | 1.17 ± 0.094 | 1.43 ± 0.04 |
| FNGIENQSAYEWNGKSF [ISW2] | 3.09 ± 0.12 | 3.25 ± 0.2 | 3.31 ± 0.076 | 3.22 ± 0.12 |
| KSVYETPKITAAEKSFK [SEC65] |  | 2.08 ± 0.19 |  | 1.53 ± 0.08 |
| DDFFKELAKEAKKSTTI [ESC2] | 3.17 ± 0.12 | 3.09 ± 0.12 | 2.97 ± 0.094 | 3.36 ± 0.091 |
| RMKQYLKTKLLEEVEGS [RPB7] | 3.09 ± 0.13 | 3.09 ± 0.1 | 3.11 ± 0.088 | 3.24 ± 0.13 |
| IKDEIDDPFTKINTRGA [SWI1] | 1.96 ± 0.22 | 1.58 ± 0.1 | 1.53 ± 0.13 | 2.12 ± 0.16 |
| TKFKVRGSSSLYTLVIN [RPL38] | 2.08 ± 0.074 | 1.32 ± 0.09 | 1.55 ± 0.13 | 2.13 ± 0.09 |
| SHFSLDQFITSLKCTDP [ITC1] | 2.09 ± 0.073 | 2.42 ± 0.079 | 2.35 ± 0.076 | 2.12 ± 0.1 |
| ARLPPRATNCRKRKCGH [RPL40A] | 2.98 ± 0.094 | 3.3 ± 0.15 | 3.2 ± 0.1 | 3.14 ± 0.11 |
| EVYTLVDSQGLPYNWDA [ARP7] | 3.31 ± 0.2 | 3.56 ± 0.2 | 2.85 ± 0.14 | 3.22 ± 0.15 |
| YQDIEGGFEDVEEYTWS [RPB2] | 3.44 ± 0.14 | 3.29 ± 0.11 | 3.49 ± 0.066 | 3.44 ± 0.099 |
| TKPSLRKASCIWLLSYI [ECM29] | 1.75 ± 0.054 | 1.88 ± 0.051 | 1.86 ± 0.077 | 1.86 ± 0.038 |
| NLKEYNKFMSIFLKRKD [SRB8] | 1.64 ± 0.06 | 2.22 ± 0.12 | 2.83 ± 0.078 | 1.88 ± 0.096 |
| DEAKDFIVSGTASDQLF [PUP3] | 2.74 ± 0.089 | 2.83 ± 0.07 | 2.57 ± 0.096 | 2.92 ± 0.076 |

| Sequence | protein stability index (doa10∆) | protein stability index (pdr5∆) | protein stability index (san1∆) | protein stability index (ubr1∆) |
| --- | --- | --- | --- | --- |
| VGLKNYDPQRDKRFSGS [RPL1A] | 3.23 ± 0.082 | 3.48 ± 0.1 | 3 ± 0.096 | 3.25 ± 0.061 |
| TFHHHGRQTVLIKDNSA [SRB2] | 1.92 ± 0.25 | 2.52 ± 0.21 |  | 2.56 ± 0.24 |
| EEYARRLAEFKRRKLDL [SMC4] | 3.13 ± 0.13 | 3.46 ± 0.12 | 2.72 ± 0.1 | 3.31 ± 0.08 |
| VLCNSNISKSRAKPVTN [RRP6] | 2.3 ± 0.083 | 2.67 ± 0.096 | 2.09 ± 0.11 | 2.14 ± 0.067 |
| VFGFRANKMRQDRLSDL [SMC4] |  |  |  | 2.74 ± 0.081 |
| PSDWQRNSFIRDMIMKR [ITC1] | 3.01 ± 0.072 | 3.03 ± 0.073 | 3.21 ± 0.055 | 2.89 ± 0.047 |
| GSKQILKTEAANVLDPS [BRR2] | 3.11 ± 0.075 | 2.99 ± 0.076 | 3 ± 0.056 | 3.19 ± 0.067 |
| ANNNINSASSAPTPAAP [SWI1] | 2.99 ± 0.064 | 2.88 ± 0.077 | 3.05 ± 0.078 | 2.97 ± 0.064 |
| EPSDLRSWTLTSEMKVL [YGL100W/SEH1] | 2.92 ± 0.049 | 2.77 ± 0.045 | 3.16 ± 0.052 | 3.37 ± 0.045 |
| AKAKRRHTTGTGRMRYL [RPL37A] | 3.14 ± 0.14 | 3.22 ± 0.083 | 2.99 ± 0.16 | 3.62 ± 0.16 |
| FLLTQSKVSIEQRKEAA [RPN7] | 2.27 ± 0.13 | 2.53 ± 0.15 | 2.42 ± 0.088 | 2.48 ± 0.058 |
| AFVKQKNDSLEKTINDL [YIL149C/MLP2] | 3.1 ± 0.11 | 3.19 ± 0.11 | 3.02 ± 0.14 | 3.11 ± 0.12 |
| MNMFGGGMGGGMGGGMP [SRP54] | 1.38 ± 0.055 | 2.43 ± 0.21 | 1.69 ± 0.17 | 1.53 ± 0.18 |
| KNSDVWFLDHNYIENMN [RPN8] | 2.68 ± 0.1 | 2.44 ± 0.094 | 2.57 ± 0.11 | 2.41 ± 0.057 |
| VDNVWADVYAKALEGKD [RPP1B] | 3.14 ± 0.1 | 3.1 ± 0.16 | 3.35 ± 0.12 | 3.06 ± 0.11 |
| AATIGANFIFSPASGIV [RPT4] | 2.56 ± 0.061 | 2.66 ± 0.055 | 1.84 ± 0.1 | 2.18 ± 0.083 |
| LKNVEETQEIKENDTVM [ESC2] | 2.86 ± 0.097 | 3 ± 0.075 | 2.92 ± 0.14 | 3.16 ± 0.074 |
| PIGEAGDFGGWFCPCHG [RIP1] | 2 ± 0.1 | 1.97 ± 0.05 | 2.87 ± 0.08 | 3.18 ± 0.075 |
| RKDKDAKFRLILIESRI [RPS13] | 1.52 ± 0.094 | 1.82 ± 0.12 | 1.9 ± 0.11 | 2.57 ± 0.11 |
| NDILDELLCGMANKEWR [ECM29] | 2.37 ± 0.14 | 1.47 ± 0.098 | 2.72 ± 0.15 | 1.6 ± 0.061 |

Source: the supplement of paper PMC9732359
